In data set [1] the target is T1, AtHMT (Arabidopsis thaliana, UniProt Q0WP12).
T1 sequence (Q0WP12 1-227): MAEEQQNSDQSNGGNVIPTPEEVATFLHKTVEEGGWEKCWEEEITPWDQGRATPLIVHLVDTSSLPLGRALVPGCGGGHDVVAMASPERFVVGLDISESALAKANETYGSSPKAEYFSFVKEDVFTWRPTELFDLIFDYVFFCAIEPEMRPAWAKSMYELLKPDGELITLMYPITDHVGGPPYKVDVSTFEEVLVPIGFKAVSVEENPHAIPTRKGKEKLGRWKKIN
As to the kind of experiment: kinetic analysis of methyl transfer to SAH. Particulars: read-out: Methyltransferase activity / K M, MeI; co-substrate SAH. The format is biochemical.

In data set [2] the target is T2, AtHMT (Arabidopsis thaliana, UniProt Q0WP12, V140T).
T2 sequence (Q0WP12 1-227 V140T): T1 sequence (Q0WP12 1-227) with V140T
As to the kind of experiment: kinetic analysis of methyl transfer to SAH. The class given is biochemical. Particulars: read-out: Methyltransferase activity / K M, MeI; co-substrate SAH.

A further data set deals with T3, RsHMT (Raphanus sativus, UniProt C6L2E7).
T3 sequence (C6L2E7 1-226): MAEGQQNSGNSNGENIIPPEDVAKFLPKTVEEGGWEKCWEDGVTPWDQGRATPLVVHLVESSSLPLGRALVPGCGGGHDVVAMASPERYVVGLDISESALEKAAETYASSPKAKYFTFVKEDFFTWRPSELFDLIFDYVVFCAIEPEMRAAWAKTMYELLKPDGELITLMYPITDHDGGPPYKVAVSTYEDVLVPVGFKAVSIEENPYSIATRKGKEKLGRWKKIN
The data set can be described thus: alkylation of SAH, specific activity. The class given is biochemical. As to conditions: co-substrate SAH.

Substrate in data set [3]: CCI
The data set can be described thus: kinetic analysis of ethyl transfer to SAH. The format is biochemical, Arabidopsis thaliana. Particulars: co-substrate SAH.

Substitutions are numbered along the chain they refer to. In names and notes the source's numbering stands.

On to `CI` [methyl iodide], for which the values for the Km on AtHMT [1] and at AtHMT [2] were 1.43 ± 0.19 mM and 4.7 ± 0.76 mM, respectively. Further, the “alkylation of SAH, specific activity” value at RsHMT is given as “All three HMTs were active using methyl iodide”.

Consider `CCI` [ethyl iodide], for which the “alkylation of SAH, specific activity” value on RsHMT is “all three enzymes had promiscuous activity against ethyl iodide”.

B1: AtHMT (Arabidopsis thaliana) (protein)
chain: T1 sequence (Q0WP12 1-227)
In the case of B1, in data set [3], the Km was 9.36 ± 1.66 mM, the kcat was found to be 0.006 ± 0.0005 s⁻¹ and the kcat/Km worked out at 0.633 M⁻¹ s⁻¹.

B2: AtHMT (Arabidopsis thaliana; V140T) (protein)
chain: T1 sequence (Q0WP12 1-227) with V140T
As to B2, in data set [3], the Km turned out to be 11.14 ± 1.52 mM, the kcat is 0.0397 ± 0.00267 s⁻¹ and the kcat/Km stood at 3.57 M⁻¹ s⁻¹.

The term kcat denotes the maximal rate divided by the concentration of active sites. As usually defined, the kcat/Km is the second-order rate constant that governs catalysis at low substrate concentration.
